Results from US20250101127A1 (CYRON THERAPEUTICS, published 2025).

Target: T1, MUC1 (Mucin-1) as expressed by human cancer cell lines (human, UniProt P15941 24-1255)
T1 construct: whole, on cells; Endogenous antigen on the cell surface (flow cytometry) or in cell lysates (immunoprecipitation, western blot); also called MUC1 antigen; antigen recognized by the MP1 monoclonal antibody
Experiment: flow cytometry, SiHa cells; grade = percent MP1 positive cells (+: 20-30%)
Protocol: The MP1 monoclonal antibody of the present invention was added to the cultured various cancer cells, respectively, and they were reacted at 4° C. for 30 minutes and then washed with PBS, and FITC-conjugated goat anti mouse IgG (Jackson ImmunoResearch, USA) was added and they were cultured at 4° C. for 15 minutes. They were washed with PBS again, and then were analyzed with FACS caliber (Becton Dickinson, USA) to confirm the reactivity of the MP1 antibody in various solid cancer cell lines (Table 9).

T1 sequence (P15941 24-1255): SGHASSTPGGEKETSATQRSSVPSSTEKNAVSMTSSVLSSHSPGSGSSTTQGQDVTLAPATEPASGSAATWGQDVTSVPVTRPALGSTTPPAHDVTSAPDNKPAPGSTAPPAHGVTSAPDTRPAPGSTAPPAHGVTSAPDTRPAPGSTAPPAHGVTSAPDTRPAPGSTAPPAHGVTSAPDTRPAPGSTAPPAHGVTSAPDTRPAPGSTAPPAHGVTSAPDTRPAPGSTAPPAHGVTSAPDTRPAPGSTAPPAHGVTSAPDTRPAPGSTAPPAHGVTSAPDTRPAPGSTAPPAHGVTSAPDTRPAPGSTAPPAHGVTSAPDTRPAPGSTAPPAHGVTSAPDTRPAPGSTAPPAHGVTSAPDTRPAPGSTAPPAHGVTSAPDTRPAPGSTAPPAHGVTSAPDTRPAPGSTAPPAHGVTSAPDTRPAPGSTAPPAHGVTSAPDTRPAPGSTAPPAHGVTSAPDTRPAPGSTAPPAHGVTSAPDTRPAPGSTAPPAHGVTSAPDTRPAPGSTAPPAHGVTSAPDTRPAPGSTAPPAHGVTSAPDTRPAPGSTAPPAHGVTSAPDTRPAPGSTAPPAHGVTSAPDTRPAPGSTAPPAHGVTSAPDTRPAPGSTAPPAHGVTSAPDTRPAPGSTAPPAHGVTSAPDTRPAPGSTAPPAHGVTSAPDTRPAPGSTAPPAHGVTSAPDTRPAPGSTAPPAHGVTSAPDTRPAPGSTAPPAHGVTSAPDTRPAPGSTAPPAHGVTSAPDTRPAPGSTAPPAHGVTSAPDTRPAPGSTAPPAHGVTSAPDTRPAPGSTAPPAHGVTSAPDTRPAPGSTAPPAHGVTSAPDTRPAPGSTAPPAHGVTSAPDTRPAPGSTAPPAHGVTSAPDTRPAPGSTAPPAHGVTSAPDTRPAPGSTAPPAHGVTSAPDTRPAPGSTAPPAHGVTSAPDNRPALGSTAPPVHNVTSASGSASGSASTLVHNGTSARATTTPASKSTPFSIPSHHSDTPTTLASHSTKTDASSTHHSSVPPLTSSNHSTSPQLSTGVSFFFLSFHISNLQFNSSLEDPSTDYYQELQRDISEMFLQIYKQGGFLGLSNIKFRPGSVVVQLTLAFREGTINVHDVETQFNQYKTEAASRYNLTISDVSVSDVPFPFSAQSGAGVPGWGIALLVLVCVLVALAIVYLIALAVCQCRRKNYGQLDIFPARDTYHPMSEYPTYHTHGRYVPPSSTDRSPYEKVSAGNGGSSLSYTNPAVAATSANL

B1: MP1 monoclonal antibody (antibody, V domains shown)
VH: EVKVDETGGGLVQPGRPMKLSCVVSGITFSDYWMNWVRQSPEKGLEWVAQIRNKPYNYETYYSNSVKGRFTISRDDSKSSVYLQMNNLRAEDMGIYYCTWAMITSDGYAMDYWGQGTSVTVSS
VL: DIVMSQSPSSLAVSVGEKVTLICKSSQSLLLSSNQKNYLAWYQQKPGQSPKLLIYWASTRESGVPDRFTGSGSGTDFTLTINSVKAEDLAVYYCQQCFSYPLTFGAGTKLELK
notes: also called mouse antibody MP1; MP1 Ab
- binding result: binds
